From the Human Domainome abundance scans (Beltran et al. 2025)
± gives the uncertainty stated by the source.

B1: Tumor protein 63, residues 545 to 610; numbered along this chain, Q9H3D4 (parent)
chain: TDCSIVSFLARLGCSSCLDYFTTQGLTTIYQIEHYSMDDLASLKIPEQFRHAIWKGILDHRQLHEF

Variants of: B1
Experiment: abundance fitness (aPCA) (normalised: wild type 0, dead -1); higher = more abundant; growth selection in yeast, the domain comes from the species named
Settings: Homo sapiens

Q: For TDCSIVSFLARLGCSSCLDYFTYQGLTTIYQIEHYSMDDLASLKIPEQFRHAIWKGILDHRQLHEF [T23Y], which abundance fitness is on record?
A: -0.096 ± 0.035

Q: Which abundance fitness does the source give for TDCSIVSFLARLGCSSCLDYFTLQGLTTIYQIEHYSMDDLASLKIPEQFRHAIWKGILDHRQLHEF [T23L] here?
A: -0.03 ± 0.023

Q: Which abundance fitness does the source give for TDCSIVSFLARLGCSSCLDYFTPQGLTTIYQIEHYSMDDLASLKIPEQFRHAIWKGILDHRQLHEF [T23P] here?
A: -0.093 ± 0.032

Q: For TDCSIVSFLARLGCSSCLDYFTRQGLTTIYQIEHYSMDDLASLKIPEQFRHAIWKGILDHRQLHEF [T23R], which abundance fitness is on record?
A: -0.02 ± 0.022

Q: Which abundance fitness does the source give for TDCSIVSFLARLGCSSCLDYFTWQGLTTIYQIEHYSMDDLASLKIPEQFRHAIWKGILDHRQLHEF [T23W] here?
A: -0.105 ± 0.036

Q: With TDCSIVSFLARLGCSSCLDYFTSQGLTTIYQIEHYSMDDLASLKIPEQFRHAIWKGILDHRQLHEF [T23S] as the variant, how does the abundance fitness read?
A: -0.037 ± 0.023

Q: For TDCSIVSFLARLGCSSCLDYFTKQGLTTIYQIEHYSMDDLASLKIPEQFRHAIWKGILDHRQLHEF [T23K], which abundance fitness is on record?
A: -0.008 ± 0.032

Q: For TDCSIVSFLARLGCSSCLDYFTQQGLTTIYQIEHYSMDDLASLKIPEQFRHAIWKGILDHRQLHEF [T23Q], which abundance fitness is on record?
A: 0 ± 0.036

Q: For TDCSIVSFLARLGCSSCLDYFTMQGLTTIYQIEHYSMDDLASLKIPEQFRHAIWKGILDHRQLHEF [T23M], which abundance fitness is on record?
A: -0.01 ± 0.033

Q: For TDCSIVSFLARLGCSSCLDYFTVQGLTTIYQIEHYSMDDLASLKIPEQFRHAIWKGILDHRQLHEF [T23V], which abundance fitness is on record?
A: -0.044 ± 0.024

Q: With TDCSIVSFLARLGCSSCLDYFTNQGLTTIYQIEHYSMDDLASLKIPEQFRHAIWKGILDHRQLHEF [T23N] as the variant, how does the abundance fitness read?
A: 0.002 ± 0.041

Q: Which abundance fitness does the source give for TDCSIVSFLARLGCSSCLDYFTTQGLKTIYQIEHYSMDDLASLKIPEQFRHAIWKGILDHRQLHEF [T27K] here?
A: -0.032 ± 0.038

Q: Which abundance fitness does the source give for TDCSIVSFLARLGCSSCLDYFTTQGLSTIYQIEHYSMDDLASLKIPEQFRHAIWKGILDHRQLHEF [T27S] here?
A: -0.022 ± 0.022

Q: Which abundance fitness does the source give for TDCSIVSFLARLGCSSCLDYFTTQGLWTIYQIEHYSMDDLASLKIPEQFRHAIWKGILDHRQLHEF [T27W] here?
A: -0.135 ± 0.03

Q: With TDCSIVSFLARLGCSSCLDYFTTQGLFTIYQIEHYSMDDLASLKIPEQFRHAIWKGILDHRQLHEF [T27F] as the variant, how does the abundance fitness read?
A: -0.063 ± 0.035

Q: With TDCSIVSFLARLGCSSCLDYFTTQGLRTIYQIEHYSMDDLASLKIPEQFRHAIWKGILDHRQLHEF [T27R] as the variant, how does the abundance fitness read?
A: -0.053 ± 0.022

Q: Which abundance fitness does the source give for TDCSIVSFLARLGCSSCLDYFTTQGLITIYQIEHYSMDDLASLKIPEQFRHAIWKGILDHRQLHEF [T27I] here?
A: -0.075 ± 0.038

Q: Which abundance fitness does the source give for TDCSIVSFLARLGCSSCLDYFTTQGLYTIYQIEHYSMDDLASLKIPEQFRHAIWKGILDHRQLHEF [T27Y] here?
A: -0.079 ± 0.038

Q: With TDCSIVSFLARLGCSSCLDYFTTQGLGTIYQIEHYSMDDLASLKIPEQFRHAIWKGILDHRQLHEF [T27G] as the variant, how does the abundance fitness read?
A: -0.123 ± 0.018

Q: For TDCSIVSFLARLGCSSCLDYFTTQGLETIYQIEHYSMDDLASLKIPEQFRHAIWKGILDHRQLHEF [T27E], which abundance fitness is on record?
A: -0.04 ± 0.029

Q: Which abundance fitness does the source give for TDCSIVSFLARLGCSSCLDYFTTQGLLTIYQIEHYSMDDLASLKIPEQFRHAIWKGILDHRQLHEF [T27L] here?
A: -0.084 ± 0.022

Q: Which abundance fitness does the source give for TDCSIVSFLARLGCSSCLDYFTTQGLVTIYQIEHYSMDDLASLKIPEQFRHAIWKGILDHRQLHEF [T27V] here?
A: -0.044 ± 0.022

Q: With TDCSIVSFLARLGCSSCLDYFTTQGLNTIYQIEHYSMDDLASLKIPEQFRHAIWKGILDHRQLHEF [T27N] as the variant, how does the abundance fitness read?
A: -0.024 ± 0.028

Q: For TDCSIVSFLARLGCSSCLDYFTTQGLCTIYQIEHYSMDDLASLKIPEQFRHAIWKGILDHRQLHEF [T27C], which abundance fitness is on record?
A: -0.133 ± 0.037

Q: Which abundance fitness does the source give for TDCSIVSFLARLGCSSCLDYFTTQGLMTIYQIEHYSMDDLASLKIPEQFRHAIWKGILDHRQLHEF [T27M] here?
A: -0.107 ± 0.033

Q: For TDCSIVSFLARLGCSSCLDYFTTQGLQTIYQIEHYSMDDLASLKIPEQFRHAIWKGILDHRQLHEF [T27Q], which abundance fitness is on record?
A: -0.049 ± 0.035

Q: For TDCSIVSFLARLGCSSCLDYFTTQGLHTIYQIEHYSMDDLASLKIPEQFRHAIWKGILDHRQLHEF [T27H], which abundance fitness is on record?
A: -0.005 ± 0.061

Q: With TDCSIVSFLARLGCSSCLDYFTTQGLPTIYQIEHYSMDDLASLKIPEQFRHAIWKGILDHRQLHEF [T27P] as the variant, how does the abundance fitness read?
A: -0.82 ± 0.07

Q: Which abundance fitness does the source give for TDCSIVSFLARLGCSSCLDYFTTQGLATIYQIEHYSMDDLASLKIPEQFRHAIWKGILDHRQLHEF [T27A] here?
A: -0.105 ± 0.023

Q: For TDCSIVSFLARLGCSSCLDYFTTQGLDTIYQIEHYSMDDLASLKIPEQFRHAIWKGILDHRQLHEF [T27D], which abundance fitness is on record?
A: -0.057 ± 0.029

Q: With TDCSIVSFLARLGCSSCLDYFTTQGATTIYQIEHYSMDDLASLKIPEQFRHAIWKGILDHRQLHEF [L26A] as the variant, how does the abundance fitness read?
A: -0.271 ± 0.029

Q: With TDCSIVSFLARLGCSSCLDYFTTQGITTIYQIEHYSMDDLASLKIPEQFRHAIWKGILDHRQLHEF [L26I] as the variant, how does the abundance fitness read?
A: -0.014 ± 0.028

Q: For TDCSIVSFLARLGCSSCLDYFTTQGTTTIYQIEHYSMDDLASLKIPEQFRHAIWKGILDHRQLHEF [L26T], which abundance fitness is on record?
A: -0.272 ± 0.025

Q: With TDCSIVSFLARLGCSSCLDYFTTQGYTTIYQIEHYSMDDLASLKIPEQFRHAIWKGILDHRQLHEF [L26Y] as the variant, how does the abundance fitness read?
A: -0.149 ± 0.05

Q: For TDCSIVSFLARLGCSSCLDYFTTQGMTTIYQIEHYSMDDLASLKIPEQFRHAIWKGILDHRQLHEF [L26M], which abundance fitness is on record?
A: -0.112 ± 0.032

Q: For TDCSIVSFLARLGCSSCLDYFTTQGCTTIYQIEHYSMDDLASLKIPEQFRHAIWKGILDHRQLHEF [L26C], which abundance fitness is on record?
A: -0.174 ± 0.025

Q: For TDCSIVSFLARLGCSSCLDYFTTQGNTTIYQIEHYSMDDLASLKIPEQFRHAIWKGILDHRQLHEF [L26N], which abundance fitness is on record?
A: -0.414 ± 0.041

Q: Which abundance fitness does the source give for TDCSIVSFLARLGCSSCLDYFTTQGVTTIYQIEHYSMDDLASLKIPEQFRHAIWKGILDHRQLHEF [L26V] here?
A: -0.054 ± 0.025

Q: With TDCSIVSFLARLGCSSCLDYFTTQGDTTIYQIEHYSMDDLASLKIPEQFRHAIWKGILDHRQLHEF [L26D] as the variant, how does the abundance fitness read?
A: -0.552 ± 0.054

Q: Which abundance fitness does the source give for TDCSIVSFLARLGCSSCLDYFTTQGGTTIYQIEHYSMDDLASLKIPEQFRHAIWKGILDHRQLHEF [L26G] here?
A: -0.935 ± 0.064

Q: With TDCSIVSFLARLGCSSCLDYFTTQGWTTIYQIEHYSMDDLASLKIPEQFRHAIWKGILDHRQLHEF [L26W] as the variant, how does the abundance fitness read?
A: -0.435 ± 0.03
